Test results as given in patent publication US20200157519A1 (IMMUNWORK, published 2020).

What was measured:
[1] = biological target: T1, human fibrin (human fibrinogen coated on the plate and treated with thrombin) (human, UniProt P02671 36-629; P02675 45-491; P02679 27-437); experiment: ELISA after storage at 4 C for 3 or 6 days, HRP-protein L
T1 construct: Made on the plate: coated human fibrinogen (Sigma) treated with 1.0 U/mL thrombin, CaCl2 and L-cysteine
T1 sequence (looked up) 1: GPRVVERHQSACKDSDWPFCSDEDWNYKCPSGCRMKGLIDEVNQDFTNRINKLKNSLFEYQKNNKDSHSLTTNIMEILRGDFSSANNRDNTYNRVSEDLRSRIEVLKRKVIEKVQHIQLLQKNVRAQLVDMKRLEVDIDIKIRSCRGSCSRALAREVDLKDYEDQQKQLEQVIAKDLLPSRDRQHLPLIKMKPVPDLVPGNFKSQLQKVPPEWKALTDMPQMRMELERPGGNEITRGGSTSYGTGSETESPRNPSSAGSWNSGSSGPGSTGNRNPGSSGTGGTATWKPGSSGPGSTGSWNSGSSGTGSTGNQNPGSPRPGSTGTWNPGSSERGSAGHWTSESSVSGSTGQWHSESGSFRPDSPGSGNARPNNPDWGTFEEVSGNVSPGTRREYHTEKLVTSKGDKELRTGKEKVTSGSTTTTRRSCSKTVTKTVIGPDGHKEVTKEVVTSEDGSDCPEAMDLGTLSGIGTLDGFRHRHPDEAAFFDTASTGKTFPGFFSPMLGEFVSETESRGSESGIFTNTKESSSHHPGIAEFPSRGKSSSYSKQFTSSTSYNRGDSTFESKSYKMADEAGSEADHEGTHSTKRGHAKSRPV
T1 sequence (looked up) 2: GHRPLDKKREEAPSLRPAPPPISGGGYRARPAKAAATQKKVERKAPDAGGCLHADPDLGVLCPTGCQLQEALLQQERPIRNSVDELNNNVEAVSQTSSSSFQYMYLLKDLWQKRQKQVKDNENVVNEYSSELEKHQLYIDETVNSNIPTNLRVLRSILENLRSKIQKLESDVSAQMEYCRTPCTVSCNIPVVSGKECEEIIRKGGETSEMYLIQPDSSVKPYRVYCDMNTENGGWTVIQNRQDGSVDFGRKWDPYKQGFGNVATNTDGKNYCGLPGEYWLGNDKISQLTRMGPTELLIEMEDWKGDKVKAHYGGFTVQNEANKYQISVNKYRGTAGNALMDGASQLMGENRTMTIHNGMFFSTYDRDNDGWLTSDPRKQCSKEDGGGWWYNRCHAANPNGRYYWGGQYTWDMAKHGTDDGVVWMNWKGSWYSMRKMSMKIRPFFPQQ
T1 sequence (looked up) 3: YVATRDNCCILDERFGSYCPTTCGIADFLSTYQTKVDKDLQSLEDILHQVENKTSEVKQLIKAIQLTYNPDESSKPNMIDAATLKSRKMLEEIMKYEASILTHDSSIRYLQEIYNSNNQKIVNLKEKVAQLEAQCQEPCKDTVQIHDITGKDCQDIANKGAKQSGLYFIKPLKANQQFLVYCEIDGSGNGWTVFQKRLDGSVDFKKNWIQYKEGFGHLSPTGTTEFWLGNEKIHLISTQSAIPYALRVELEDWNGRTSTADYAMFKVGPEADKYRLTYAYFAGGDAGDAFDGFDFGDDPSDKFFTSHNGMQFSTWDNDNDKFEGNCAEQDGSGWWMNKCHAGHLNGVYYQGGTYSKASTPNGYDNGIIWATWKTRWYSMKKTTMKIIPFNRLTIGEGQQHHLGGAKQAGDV
Protocol: (§1) To evaluate the stability of reteplase-(3D5 scFv) after storage, the reteplase-(3D5 scFv) was stored at 4° C. for 3, 6 and 30 days, and then SDS-PAGE and ELISA analysis were performed.
(§2) 96-well polystyrene microplates were coated with human fibrinogen (Sigma) (20 μg/mL) in PBS buffer (100 μL/well). After overnight incubation at 4° C., the coated wells were washed with PBS buffer. To induce the cross-linking of human fibrin, coated wells was incubated at 37° C. for 1 hour with human α-thrombin (Sigma) at a final concentration of 1 U/mL in TBS buffer with 2 mM CaCl₂ and 7 mM L-cystine (Merck). After blocking the wells with a blocking buffer (5% non-fat dry milk/PBS), 100 μL of reteplase-(3D5-scFv) at a final concentration of 0.1, 1 and 10 μg/mL were added to each well and incubate at room temperature for 1 hour. Thereafter, the plates were washed three times, and HRP-conjugated protein L diluted to 1/5000 was added to the wells and incubated for 1 hour at room temperature. The wells were washed three times and added with 100 μL of 3,3′,5,5′-Tetramethylbenzidine (TMB) substrate buffer. 5 minutes later, the color development was stopped with 1 M HCl. The optical density (OD) was measured at 450 nm using a microplate reader (Molecular Devices) and the data were processed using Graph Pad Prism software. […]

[2] = biological target: T2, crosslinked human fibrin treated by human factor XIIIa (human, UniProt P02671 36-629; P02675 45-491; P02679 27-437, crosslinked by factor XIIIa); experiment: as above
T2 construct: Coated human fibrinogen treated with thrombin and 0.55 ug factor XIIIa (Zedira) per well; also called crosslinked fibrin
T2 sequence (looked up) 1: T1 sequence (looked up) 1
T2 sequence (looked up) 2: T1 sequence (looked up) 2
T2 sequence (looked up) 3: T1 sequence (looked up) 3
Protocol: as §1, §2

B1: recombinant reteplase-(3D5 VL-218-VH scFv α fibrin) protein (other)
chain: SYQGNSDCYFGNGSAYRGTHSLTESGASCLPWNSMILIGKVYTAQNPSAQALGLGKHNYCRNPDGDAKPWCHVLKNRRLTWEYCDVPSCSTCGLRQYSQPQFRIKGGLFADIASHPWQAAIFAKHRRSPGERFLCGGILISSCWILSAAHCFQERFPPHHLTVILGRTYRVVPGEEEQKFEVEKYIVHKEFDDDTYDNDIALLQLKSDSSRCAQESSVVRTVCLPPADLQLPDWTECELSGYGKHEALSPFYSERLKEAHVRLYPSSRCTSQHLLNRTVTDNMLCAGDTRSGGPQANLHDACQGDSGGPLVCLNDGRMTLVGIISWGLGCGQKDVPGVYTKVTNYLDWIRDNMRPASGGGGSGGGGSGGGGSDIQMTQSPSSLSASVGDRVTITCRASQDVSNNVAWYQQKPGKAPKLLIFWSPWLYSGVPSRFSGSGSGTDFTLTISSLQPEDFATYYCQQGWDSPVTFGQGTKVEIKRGSTSGSGKPGSGEGSTKGEVQLVESGGGLVQPGGSLRLSCAASGFTISDFGIHWVRQAPGKGLEWVASIWPSGGYTYYADSVKGRFTISADTSKNTAYLQMNSLRAEDTAVYYCARSWFYSWYDYWGQGTLVTVSS
notes: Fusion: reteplase, flexible linker, 3D5 VL, 218 linker, 3D5 VH; also called reteplase-(3D5 scFv); reteplase-(3D5-scFv)
**Q.** Which results are given for B1?
**A.** binding result [1]: binds; binding result [2]: binds
